Data published in US20230322880A1 (MEDIKINE, published 2023).
Where no end group is shown, it is not given here.

Target: T1, IL-7Rα-Fc (CD127 protein, Fc tag; ECD 21-236; ACRObiosystems, Inc, Cat. #ILA-H5258) (human, UniProt P16871 21-236)
T1 construct: range 21-236; also called hu-IL-7Rα subunit; not shown: Fc tag of the purchased protein
T1 sequence (looked up): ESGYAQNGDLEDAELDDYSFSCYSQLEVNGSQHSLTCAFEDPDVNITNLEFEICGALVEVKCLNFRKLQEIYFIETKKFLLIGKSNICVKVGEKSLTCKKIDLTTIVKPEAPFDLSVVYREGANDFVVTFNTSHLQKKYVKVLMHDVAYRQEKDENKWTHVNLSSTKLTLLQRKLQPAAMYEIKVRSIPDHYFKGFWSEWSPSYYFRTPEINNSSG
Assay: competition binding ELISA, plate-coated receptor, biotinylated reference peptide::NA-HRP tracer
Method: Binding of the synthetic IL-7Rα ligands to IL-7Rα was evaluated using a competition binding ELISA. Microtiter plate wells were coated with IL-7Rα-Fc (CD127 protein, Fc tag; ECD 21-236; ACRObiosystems, Inc, Cat. #ILA-H5258) at 1 μg/mL; 50 μL per well in PBS for at least 1 h. The plate was washed once with wash buffer (200 μL, PBS containing 0.05% Tween®-20 (Sigma). Wells were blocked with blocking buffer (PBS containing 1% BSA (BSA Fraction V; VWR Cat. No. 97061-416) for 1 h. A serial dilution of the peptides was prepared, at twice the final concentration, in assay buffer (PBS containing 0.5% BSA and 0.05% Tween®-20) in a 96-well polypropylene plate. A terminal biotinylated form of the reference IL-7Rα peptide ligand having SEQ ID NO: 300 ([…]) was used to make a precomplex with NeutrAvidin-HRP (NA-HRP; ThermoFisher Cat. No. 31030) (Precomplex referred to as bnPeptide::NA-HRP). The bnPeptide::NA-HRP precomplex was prepared by mixing 1.5 μL 100 μM biotinylated peptide, 2 μL NA-HRP and 11.5 PBS and incubated at 4° C. for at least 45 min. After blocking the wells, the plate was washed with a plate washer and serial dilutions of the peptides were added (50 μL/well) and the plate was incubated at 4° C. for 1 h on a plate shaker. […] Fifty (50) μL of a solution (Surmodics Cat. #LSTP-0100-0) was then added and the plate read at 450 nm. […]

binding result: binds
B1: IL-7Rαγc ligand having SEQ ID NO: 30 (peptide)
peptide: GWGIPWCTLDPGSLQCAWLGKHGGGGSGGVVCQDWEGVELCWQGG
modifications: disulfide (positions not given here); also: two disulfide bridges, pairing not given here
